Measured values taken from patent US20090068110A1, “ANTIBODIES TO INSULIN-LIKE GROWTH FACTOR RECEPTOR” (Genentech, Inc., priority 2006, published 2009).

Key:
[1] = tested on: IGF-1R signaling (phospho-IGF-1R, AKT, ERK1/2); test: Western blotting of IGF-1R signaling in MCF7 cells; format: cell-based, human; conditions: for inhibition of IGF-I-mediated AKT activation: serum-starved MCF7, IGF-I 50 ng/ml; for inhibition of IGF-II-mediated IGF-1R phosphorylation and downstream AKT and MAPK1/2 activation: serum-starved MCF7, IGF-II 100 ng/ml
Description: Also examined was the effect of these antibodies on ligand-dependent IGF-1R signaling by directly analyzing IGF-1R phosphorylation as well as major downstream pathways, such as AKT and MAPK activation. In this assay, MCF7 cells were grown in 6-well plates and serum was withdrawn for 16 hours. […] The cells were directly lysed in SDS sample buffer, and the lysate was analyzed by Western blotting using antibodies against IGF-1R, phospho-IGF-1R, AKT, phospho-AKT, ERK1/2, phospho-ERK1/2 (also called MAPK1/2 and phospho-MAPK1/2) (all from Cell Signaling Technology, Inc.; Beverly, Mass., USA).
For the IGF-1R signaling pathway analysis, MCF7 cells were grown in six-well plates for 24 hours and then serum starved (serum-free and phenol-free RPMI medium supplemented with 1 mg/mL BSA) overnight. The cells were first incubated with h10H5 for 20 minutes, then stimulated with 50 ng/mL IGF-1 or 100 ng/mL IGF-11 for ten minutes. Cells were directly lysed in SDS sample buffer to preserve protein phosphorylation. After brief sonication, the lysates were separated by SDS-PAGE and transferred to nitrocellulose membranes (Invitrogen; Carlsbad, Calif.), which were probed with anti-phospho-IGF-1R, AKT, and ERK1/2 antibodies. The same blots were then stripped using Stripping Buffer™ (Pierce Biotechnology; Rockford, Ill.) and re-probed with antibodies against total IGF-1R β, AKT, and ERK1/2.

T47D = test: cell viability assay, T47D; format: cell-based, human; design: key: +: growth inhibition; −: no or weak effect; conditions: Breast Ductal Carcinoma
Description: (§1) The different cell lines were cultured in their respective culture media at 37° C. in a humidified atmosphere of 5% CO2. Subsequently, cells were detached from tissue-culture flasks using the cell-dissociation solution, TRIPLE SELECT™ solution (InVitrogen, Carlsbad, Calif., USA), and centrifuged at 1000 rpm for five minutes. Detached cells were washed once with PBS, counted, and seeded in 96-well plates (Corning, N.Y., USA) at 2000 cells per well in 100 μL of culture media. After an overnight incubation at 37° C. in a humidified atmosphere of 5% CO2, the cell-culture medium was replaced with 50 μL of starvation medium consisting of serum-free RPMI 1640™ medium without phenol red. The cells were then starved for five hours in the incubator before addition of 25 μL of each anti-IGF-1R monoclonal antibody at various dilutions in serum-free RPMI 1640™ phenol red-free media. Later, 25 μL of phenol red-free RPMI 1640™ media supplemented with 4% of fetal bovine serum (FBS) (Sigma) with or without 4 ng/ml of human recombinant IGF-I were added on top of the 50 μL of antibody. The cells were then placed at 37° C. with 5% CO2 for 5 to 6 days. At the end of the assay, cell viability was measured using the […]-GLO® kit according to the manufacturer's instructions (Promega, Madison, Wis., USA).

HT29 = test: cell viability assay, HT29; format: cell-based, human; design: key: +: growth inhibition; −: no or weak effect; conditions: HT29, Colorectal Adenocarcinoma
Description: as §1

HCT15 = test: cell viability assay, HCT15; format: cell-based, human; design: key: +: growth inhibition; −: no or weak effect; conditions: HCT15, Colorectal Adenocarcinoma
Description: as §1

SJCRH30 = test: cell viability assay, SJCRH30; format: cell-based, human; design: key: +: growth inhibition; −: no or weak effect; conditions: SJCRH30, Rhabdomyosarcoma
Description: as §1

IGF-1R = IGF-1R (Homo sapiens, UniProt P08069); test: BIACORE surface-plasmon resonance, human IGF-1R; format: binding; design: containing the extracellular domain (ECD, amino acids 1-902) tagged with 10 or 12 histidine residues at the carboxyl terminus; His10 or His12 (C); made in house; host or cells: CHO cells; conditions: affinity measurements, FIG. 14
Description: Binding affinities of antibodies to IGF-1R were determined by surface-plasmon resonance measurements on a BIACORE™ 3000 instrument (BIAcore, Inc.). Human IGF-1R-ECD was immobilized at a density of about 500 RU on the flow cells of a PIONEER™ CM5 sensor chip. Immobilization was achieved by random coupling through amino groups using a protocol provided by the manufacturer. Sensorgrams were recorded for binding of anti-IGF-1R Fab or IgG to these surfaces by injection of a series of solutions ranging from 500 nM to 3.1 nM and 250 nM to 0.78 nM in 2-fold increments, respectively. The signal from the reference cell was subtracted from the observed sensorgram. Kinetic constants were calculated by nonlinear regression analysis of the data according to a 1:1 Languir binding model using software supplied by the manufacturer. […]
Binding affinities of selected antibodies to IGF-1R were determined by surface plasmon resonance measurements on a BIACORE™ 3000 instrument (BIAcore, Inc.). […] Sensorgrams were recorded for binding of anti-IGF-1R Fab or IgG to these surfaces by injection of a series of solutions ranging from 500 nM to 3.1 nM and 250 nM to 0.78 nM in two-fold increments, respectively. […] Kinetic constants were calculated by non-linear regression analysis of the data according to a 1:1 Languir binding model using software supplied by the manufacturer.

Molecule | inhibition of IGF-I-mediated AKT activation [1] | inhibition of IGF-II-mediated IGF-1R phosphorylation and downstream AKT and MAPK1/2 activation [1] | Effect of IR3, 6D2, 9F2, and 10H5 (T47D) | Effect of IR3, 6D2, 9F2, and 10H5 (HT29) | Effect of IR3, 6D2, 9F2, and 10H5 (HCT15) | Effect of IR3, 6D2, 9F2, and 10H5 (SJCRH30) | binding to human IGF-1R (IGF-1R)
9F2: mouse monoclonal anti-IGF-1R antibody from hybridoma 9F2.6.2, ATCC PTA-7018 (antibody, V domains shown) VH: QIQLVQSGPELKKPGETVKISCKASGYTLANYGMNWVKQAPGKGFKWMGWINTNTGKPTYSDEFKGRFVFSLETSASTAYLLINNLSNEDTATYFCARSIYYYGSRYFNVWGAGTT VL: DIQMTQSTSSLSASLGDRVTISCRASQDINNYLTWYQQKPDGTVKLLIYYTSRLHSGVPSRFSGSGSGTDYSLTITNLEQEDFATYFCQQGNTLPWTFGEGTKVEIKR | potently prevented AKT activation | remained as strong inhibitors | − | + | − | + | strong binding to human IGF-1R
10H5: mouse monoclonal anti-IGF-1R antibody from hybridoma 10H5.3.4, ATCC PTA-7007 (antibody, V domains shown) VH: QVQLQQPGAELVKPGASVTLSCKASGYTFTRFWIHWVKQRPGQGLEWIGEINPSNGRTNYNENFKNKATLTVDTSSSTAYMQLSSLTSEVSVVYYCARGGRLDQWGQGTT VL: DIVMTQSQKFMSTSLGDRVSVTCKASQNVGSNVAWYQQKPGQSPEALIYSASYRYSGVPDRFTGSGSGTDFTLTISNVQSEDLAEYFCHQYNNYPYTFGGGTKVEIKR | potently prevented AKT activation | remained as strong inhibitors | − | + | − | + | strong binding to human IGF-1R
